Measured values from patent US7501552 (GENPHARM INTERNATIONAL, dated 2009).

Experiments:
Experiment in all cases: flow cytometry on peripheral blood lymphocytes
[1] = target: T1, cynomolgus monkey CD4 on lymphocytes (cynomolgus monkey, UniProt P79185 26-458)
T1 construct: whole, on cells; also called cynomolgus CD4 cells
Method: (§1) It is further desirable for some purposes that the animal be a non-human primate that expresses CD4 comprising a cross-reactive epitope with human CD4 such that it is recognized by the monoclonal antibody. […] Peripheral blood lymphocytes were isolated from whole blood of chimpanzee, rhesus, and cynomolgus monkeys. […] The stained cells were then analyzed by flow cytometry to determine if each of the human monoclonal antibodies bound to endogenous CD4 on the surface of lymphocytes from each of these three non-human primates.

[2] = target: T2, rhesus monkey CD4 on lymphocytes (rhesus monkey, UniProt P16003 26-458)
T2 construct: whole, on cells; also called rhesus CD4 cells
Method: as §1

[3] = target: T3, chimpanzee CD4 on lymphocytes (chimpanzee, UniProt P16004 26-458)
T3 construct: whole, on cells; also called chimpanzee CD4 cells
Method: as §1

T1 sequence (P79185 26-458): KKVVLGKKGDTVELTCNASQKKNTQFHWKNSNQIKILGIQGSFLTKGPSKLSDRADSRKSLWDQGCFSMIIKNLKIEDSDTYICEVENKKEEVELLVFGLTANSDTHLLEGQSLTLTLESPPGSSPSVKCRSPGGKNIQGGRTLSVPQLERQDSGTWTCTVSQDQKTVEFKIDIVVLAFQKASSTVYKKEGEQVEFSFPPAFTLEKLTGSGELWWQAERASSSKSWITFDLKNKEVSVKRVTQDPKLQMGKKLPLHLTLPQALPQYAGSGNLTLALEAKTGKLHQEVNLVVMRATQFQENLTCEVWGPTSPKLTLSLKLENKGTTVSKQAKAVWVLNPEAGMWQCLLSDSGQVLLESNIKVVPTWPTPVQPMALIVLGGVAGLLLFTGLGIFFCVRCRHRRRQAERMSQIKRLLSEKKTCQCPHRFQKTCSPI
T2 sequence (P16003 26-458): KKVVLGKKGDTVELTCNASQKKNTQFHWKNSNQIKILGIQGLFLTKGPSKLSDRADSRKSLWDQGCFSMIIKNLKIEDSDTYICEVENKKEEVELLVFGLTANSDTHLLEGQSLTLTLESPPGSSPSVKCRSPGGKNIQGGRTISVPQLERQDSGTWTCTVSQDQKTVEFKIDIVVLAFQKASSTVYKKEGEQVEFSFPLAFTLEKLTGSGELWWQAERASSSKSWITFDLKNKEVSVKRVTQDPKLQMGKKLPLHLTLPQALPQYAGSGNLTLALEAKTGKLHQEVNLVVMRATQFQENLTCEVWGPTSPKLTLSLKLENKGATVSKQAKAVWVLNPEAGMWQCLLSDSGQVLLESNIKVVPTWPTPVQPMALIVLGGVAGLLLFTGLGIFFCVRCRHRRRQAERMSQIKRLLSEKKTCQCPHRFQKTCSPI
T3 sequence (P16004 26-458): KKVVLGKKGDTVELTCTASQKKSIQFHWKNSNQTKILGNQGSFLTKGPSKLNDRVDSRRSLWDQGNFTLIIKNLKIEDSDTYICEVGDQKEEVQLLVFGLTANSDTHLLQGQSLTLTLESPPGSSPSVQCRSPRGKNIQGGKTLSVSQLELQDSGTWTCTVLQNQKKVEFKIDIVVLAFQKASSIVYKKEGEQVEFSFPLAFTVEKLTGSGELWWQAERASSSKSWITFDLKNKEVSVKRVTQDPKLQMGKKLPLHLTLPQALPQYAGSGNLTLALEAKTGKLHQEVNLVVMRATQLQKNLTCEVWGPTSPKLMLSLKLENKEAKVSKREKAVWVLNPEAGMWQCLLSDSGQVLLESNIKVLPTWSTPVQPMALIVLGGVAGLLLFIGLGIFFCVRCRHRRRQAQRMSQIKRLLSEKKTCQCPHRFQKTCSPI

binding result [1]: binds
binding result [2]: binds
binding result [3]: binds
B1: 4D1 (antibody, V domains shown)
VH: EVQLVQSGAEVKKPGESLKISCKGSGYSFTGYWIGWVRQMPGKGLEWMGIIYPGDSDTTYSPSFQGQVTISADKSISTAYLQWSSLKASDTAMYYCARDQLGLFDYWGQGTLVTVSS
VL: DIQMTQSPSSLSASVGDRVTITCRASQGISSWLAWYQQKPEKAPKSLIYSASSLQSGVPSRFSGSGSGTDFTLTISSLQPEDFATYYCQQYDSYPYTFGQGTKLEIK
notes: human IgG1 kappa from hybridoma; h.c; VH5-51, DHQ52, JH4; VkL15, Jk2; also called 4D1.4
